These results are taken from patent publication US20100143349A1 (Pfizer, published 2010).

Changes are numbered by the printed parent chain.

The labels stand for the following.
B1: 2E6 scFv-Fc fusion (Fc fusion)
chain: DIQMTQSPSSLSASVGDRVTITCRASQDVGIYVNWFQQKPGKAPRRLIYRATNLADGVPSRFSGSRSGTDFTLTISSLQPEDFATYYCLEFDEHPLTFGGGTKVEIKDGGGSGGGGSGGGGNSEVQLVESGVGLVQPGGSLRLSCAASGFTFNNYWMTWVRQAPGKGLEWVASIDNSGDNTYYPDSVKDRFTISRDNAKNSLYLQMNSLRAEDTAVYYCARGGDITNGLDYWGQGTLVTVSS
notes: also called 2E6 (c); not shown: wild-type human IgG Fc (hinge and constant domains)
B2: 3B3 scFv-Fc fusion (Fc fusion)
chain: B1 chain with I31F, N122S, V132G, N227T
notes: not shown: wild-type human IgG Fc (hinge and constant domains)
B3: 3D2 scFv-Fc fusion (Fc fusion)
chain: B1 chain with N122S, V132G, T226R, N227V, G228S, Y231H
notes: as for B2
B4: 3B2 scFv-Fc fusion (Fc fusion)
chain: B1 chain with N122S, V132G, T226L, N227V
notes: as for B2
B5: 3A6 scFv-Fc fusion (Fc fusion)
chain: B1 chain with N122S, V132G, T226L, N227V, G228S, Y231V
notes: as for B2
B6: 5H3 scFv-Fc fusion (Fc fusion)
chain: B1 chain with Y49D, N122S, Q126L, V132G, N227T, L229F
notes: as for B2
B7: 10H6 scFv-Fc fusion (Fc fusion)
chain: B1 chain with R18G, R24Q, D108N, N122S, V132G, N227T, V240E
notes: also called 10H6 (a); not shown: wild-type human IgG Fc (hinge and constant domains)
B8: 1G6 scFv-Fc fusion (Fc fusion)
chain: B1 chain with I31F, N122S, V132G, L229F
notes: as for B2
B9: 3A6 scFv (scFv)
scFv: B1 chain with N122S, V132G, T226L, N227V, G228S, Y231V
B10: 3E8 scFv (scFv)
scFv: B1 chain with E90Q, E93V, N122S, V132G, N227T, L229F
B11: 3B9 scFv (scFv)
scFv: B1 chain with E90Q, E93N, N122S, V132G, N227T, L229F
B12: 3D6 scFv (scFv)
scFv: B1 chain with N122S, V132G, T226R, N227V, G228M, Y231L
B13: 6B6 scFv (scFv)
scFv: B1 chain with N122S, V132G, T226I, N227I, G228S, Y231W
B14: 6G4 scFv (scFv)
scFv: B1 chain with N122S, V132G, T226L, N227D, G228S, D230H, Y231F
B15: 3D5 scFv (scFv)
scFv: B1 chain with N122S, V132G, T226K, N227V, Y231L
B16: 6C10 scFv (scFv)
scFv: B1 chain with E90Q, N122S, V132G, N227T, L229F
B17: 6E3 scFv (scFv)
scFv: B1 chain with N122S, V132G, T226R, N227V, G228S, Y231F
B18: 3B2 scFv (scFv)
scFv: B1 chain with N122S, V132G, T226L, N227V
B19: 6E5 scFv (scFv)
scFv: B1 chain with N122S, V132G, T226R, N227V, G228M, Y231V
B20: 3D2 scFv (scFv)
scFv: B1 chain with N122S, V132G, T226R, N227V, G228S, Y231H
B21: 6C3 scFv (scFv)
scFv: B1 chain with N122S, V132G, N227L, Y231V
B22: 3G3 scFv (scFv)
scFv: B1 chain with N122S, V132G, T226K, N227V, G228S, Y231H
B23: 6C11 scFv (scFv)
scFv: B1 chain with E90Q, F91Y, E93A, N122S, V132G, N227T, L229F
B24: 3G5 scFv (scFv)
scFv: B1 chain with N122S, V132G, T226L, N227D, G228S, D230P
B25: 3C6 scFv (scFv)
scFv: B1 chain with N122S, V132G, T226V, N227V, Y231H
B26: 3G8 scFv (scFv)
scFv: B1 chain with E90Q, F91Y, E93A, N122S, V132G, N227T, L229F
B27: 6A10 scFv (scFv)
scFv: B1 chain with E90Q, E93A, N122S, V132G, N227T, L229F
B28: 6B2 scFv (scFv)
scFv: B1 chain with N122S, V132G, T226R, N227V, Y231V
B29: 6C2 scFv (scFv)
scFv: B1 chain with N122S, V132G, T226K, N227V, G228S, Y231R
B30: 3B7 scFv (scFv)
scFv: B1 chain with E90Q, E93S, N122S, V132G, N227T, L229F
B31: 6A12 scFv (scFv)
scFv: B1 chain with E90Q, F91Y, E93A, N122S, V132G, N227T, L229F

T2 sequence (Q15109 23-404): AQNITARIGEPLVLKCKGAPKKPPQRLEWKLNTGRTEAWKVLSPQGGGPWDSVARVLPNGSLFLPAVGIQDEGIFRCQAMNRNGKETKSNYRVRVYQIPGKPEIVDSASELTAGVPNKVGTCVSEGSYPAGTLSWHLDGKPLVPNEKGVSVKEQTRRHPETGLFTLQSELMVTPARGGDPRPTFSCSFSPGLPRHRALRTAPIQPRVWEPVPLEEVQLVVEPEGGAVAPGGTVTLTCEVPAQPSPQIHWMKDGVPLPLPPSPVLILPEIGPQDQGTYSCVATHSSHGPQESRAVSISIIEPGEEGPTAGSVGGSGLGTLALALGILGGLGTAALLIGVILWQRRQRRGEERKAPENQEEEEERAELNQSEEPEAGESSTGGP
T1 sequence (Q15109 23-342): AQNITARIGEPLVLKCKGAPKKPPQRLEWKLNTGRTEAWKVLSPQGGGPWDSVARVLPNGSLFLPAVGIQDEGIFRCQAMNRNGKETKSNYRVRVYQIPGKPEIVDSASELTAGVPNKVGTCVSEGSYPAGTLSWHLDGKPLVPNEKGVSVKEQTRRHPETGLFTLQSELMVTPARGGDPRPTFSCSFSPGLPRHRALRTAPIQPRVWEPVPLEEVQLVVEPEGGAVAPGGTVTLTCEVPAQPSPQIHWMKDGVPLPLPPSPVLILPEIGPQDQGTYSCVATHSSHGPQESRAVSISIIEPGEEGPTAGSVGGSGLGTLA

One test addresses T1, hRAGE-Fc (human, UniProt Q15109 23-342, biotin label in the selections and HTRF assays).
T1 construct: extracellular domain; also called biotin labeled hRAGE-Fc; Biotin-labeled RAGE-Fc; not shown: Fc part
Briefly: IC50 of parental M4 scFv-Fc over IC50 of clone, HTRF competition.
Turning to B1, the “Fold gain scFv-Fc (hRAGE)” value was 6.9 fold.

With B2, the “Fold gain scFv-Fc (hRAGE)” value was 8.8 fold.

B3: the “Fold gain scFv-Fc (hRAGE)” value worked out at 31.3 fold.

With B4, the “Fold gain scFv-Fc (hRAGE)” value worked out at 34.2 fold.

Take B5: the “Fold gain scFv-Fc (hRAGE)” value stood at 9.9 fold.

Consider B6, for which the “Fold gain scFv-Fc (hRAGE)” value is 6.1 fold.

For B7, the “Fold gain scFv-Fc (hRAGE)” value was determined as 13.7 fold.

For the molecule B8, the “Fold gain scFv-Fc (hRAGE)” value came to 6.4 fold.

Another test addresses T2, human RAGE expressed on CHO cells (human, UniProt Q15109 23-404).
T2 construct: whole, on cells; also called CHO-RAGE cells; cell surface expressed human RAGE
Kind of test: cell ELISA on CHO-RAGE cells, A450 corrected for control CHO cells. As to the method: Stably transfected Chinese Hamster Ovary (CHO) cells were engineered to express murine and human RAGE full length proteins. The murine and human RAGE cDNAs were cloned into the mammalian expression vector pSMED, linearized and transfected into CHO cells using lipofectin methods (Kaufman, R. J., 1990, Methods in Enzymology 185:537-66; Kaufman, R. J., 1990, Methods in Enzymology 185:487-511; Pittman, D. D. et al., 1993, Methods in Enzymology 222: 236). Cells were further selected in 20 nM methotrexate and cell extracts were harvested from individual clones and analyzed by SDS sodium dodecyl sulfate-polyacrylamide gel electrophoresis (SDS-PAGE) and Western blotting to confirm expression. […] Absorbance 450 nm values were corrected for the same clones binding to control CHO cells not expressing RAGE. EC50 values were calculated after curve fitting using GraphPad prism and are expressed in μg/ml.
The molecule B1 showed an EC50 of 0.113 µg/mL.

With B2, the midpoint of the response, the EC50, lay at 0.541 µg/mL.

B3: the response was half-maximal at 0.136 µg/mL (EC50).

In turn, B4 had a half-maximal effective concentration (EC50) of 0.0335 µg/mL.

In turn, B5 displayed a half-maximal effective concentration (EC50) of 0.0673 µg/mL.

For B8, the half-maximal effective concentration (EC50) was found to be 0.188 µg/mL.

Another test concerns the target T1, hRAGE-Fc. Kind of test: HTRF competition, scFv vs labelled parental XT-M4 (competitor) on biotin hRAGE-Fc. How it is done: (§1) Increases in binding to RAGE antigen were detected with the aid of a competition assay using parental XT-M4 antibody. Both phage display and ribosome display libraries were selected for affinity improved variants by incubating with biotin labeled hRAGE-Fc, recovering binding clones using streptavidin magnetic beads and washing away non binding variants. Sequential rounds of selection were carried on decreasing antigen concentrations to drive the preferential recovery of higher affinity variants. Clones recovered after selection were subsequently screening for improved binding to hRAGE-Fc using HTRF. This is an assay that measures the decrease in fluorescence upon binding of parental europium cryptate-labeled XT-M4 to RAGE in the presence of competing test scFv antibodies. In these assays, periplasmic preparations of scFv were prepared from bacterial cultures and added in increasing concentrations to a combination of parental antibody and antigen. The ability of the scFV to compete with parental XT-M4 antibody to bind to Biotin-labeled RAGE-Fc was determined. In the presence of avidin-XL665 complex labeled XT-M4 bound to biotinylated RAGE-FC was detected by Fluorescence. Increasing amounts of scFv that competed with the XT-M4 for binding to biotinylated-RAGE-Fc was detected as a decrease in fluorescence. A sequential process of screening was used to focus in on a smaller number of clones with the greatest competition in HTRF assay
Regarding B9, the IC50 is 0.474 nM.

On to B10, for which the half-maximal inhibitory concentration (IC50) is 7.21 nM.

For B11, the concentration for half-maximal inhibition (IC50) was determined as 10.6 nM.

B12: the IC50 came out at 2.92 nM.

Regarding B13, the IC50 worked out at 0.645 nM.

In the case of B14, the IC50 amounted to 2.03 nM.

Take B15: the IC50 is 3 nM.

For the molecule B16, the IC50 was 7.38 nM.

Regarding B17, the concentration for half-maximal inhibition (IC50) amounted to 1.75 nM.

In the case of B18, the IC50 stood at 0.917 nM.

In the case of B19, the 50% inhibitory concentration (IC50) was found to be 2.25 nM.

Turning to B20, the half-maximal inhibitory concentration (IC50) worked out at 1.27 nM.

Take B21: the half-maximal inhibitory concentration (IC50) stood at 1.53 nM.

As to B22, the IC50 was determined as 1.44 nM.

For the molecule B23, the half-inhibitory concentration (IC50) amounted to 9.03 nM.

Regarding B24, the IC50 stood at 0.87 nM.

B25: the IC50 stood at 1.26 nM.

Take B26: the IC50 stood at 8.08 nM.

Turning to B27, the IC50 was 6.94 nM.

As for B28, the concentration for half-maximal inhibition (IC50) came out at 1.77 nM.

Regarding B29, the half-maximal inhibitory concentration (IC50) turned out to be 0.731 nM.

On to B30, for which the half-inhibitory concentration (IC50) came out at 7.35 nM.

On to B31, for which the half-maximal inhibitory concentration (IC50) came out at 8.27 nM.

In the next test the target is T3, HU-RAGE-SA (human, UniProt Q15109 23-342).
T3 construct: extracellular domain; Directly immobilized on a CM5 chip (~100 RU); also called hRAGE-SA; soluble human streptavidin-tagged RAGE; not shown: streptavidin tag (SA)
T3 sequence (Q15109 23-342): as above
Briefly: BIAcore kd against parental M4 scFv-Fc.
As to B1, the “Fold change in kd” value is 25.7 fold.

As for B2, the “Fold change in kd” value is 4.5 fold.

Take B3: the “Fold change in kd” value was determined as 7.4 fold.

On to B4, for which the “Fold change in kd” value is 42.8 fold.

With B5, the “Fold change in kd” value came out at 33.8 fold.

Consider B6, for which the “Fold change in kd” value stood at 0.35 fold.

B7: the “Fold change in kd” value is 25.3 fold.

On to B8, for which the “Fold change in kd” value was 66.9 fold.

For the next test, the target named is T3, HU-RAGE-SA. Briefly: BIAcore, 10 nM scFv-Fc over directly immobilized HU-RAGE-SA, 1:1 fit.
In the case of B1, the koff stood at 0.00114 s⁻¹.

As to B2, the koff came out at 0.00649 s⁻¹.

Consider B3, for which the koff came to 0.00391 s⁻¹. Compared with the last molecule, the koff is about 1.7-fold lower.

Molecule B4 returned an off-rate constant (koff) of 0.000684 s⁻¹.

In turn, B5 displayed a koff of 0.000867 s⁻¹.

On to B6, for which the koff came out at 0.0826 s⁻¹.

Molecule B7 came in with a koff of 0.00116 s⁻¹.

For B8, the koff was found to be 0.000438 s⁻¹.

The target in the next test is T1, hRAGE-Fc. Briefly: HTRF competition, scFv vs labelled parental XT-M4 (competitor) on hRAGE. How it is done: as §1
Consider B9, for which the IC50 turned out to be 0.47 nM.

In the case of B13, the half-inhibitory concentration (IC50) was 0.65 nM.

As for B14, the 50% inhibitory concentration (IC50) amounted to 2.03 nM.

B18: the IC50 worked out at 0.92 nM.

Turning to B20, the half-maximal inhibitory concentration (IC50) turned out to be 1.27 nM.

Take B21: the 50% inhibitory concentration (IC50) was 1.53 nM.

For the molecule B24, the IC50 is 0.87 nM.

As for B28, the IC50 was 1.77 nM.

Consider B29, for which the concentration for half-maximal inhibition (IC50) was 0.73 nM.

A further test has as its target T1, hRAGE-Fc. Briefly: IC50 of parental M4 scFv over IC50 of clone, HTRF competition. How it is done:
as §1
As to B9, the “Fold gain scFv (hRAGE)” value was found to be 70 fold.

Turning to B13, the “Fold gain scFv (hRAGE)” value amounted to 50.7 fold.

Turning to B14, the “Fold gain scFv (hRAGE)” value was determined as 16.2 fold.

In the case of B18, the “Fold gain scFv (hRAGE)” value stood at 35.8 fold.

Consider B20, for which the “Fold gain scFv (hRAGE)” value turned out to be 26 fold.

In the case of B21, the “Fold gain scFv (hRAGE)” value amounted to 21.5 fold.

Turning to B24, the “Fold gain scFv (hRAGE)” value came to 37.9 fold.

Turning to B28, the “Fold gain scFv (hRAGE)” value was found to be 18.6 fold.

For the molecule B29, the “Fold gain scFv (hRAGE)” value amounted to 48.2 fold.
